Test results from patent publication US20050176083A1.

Experiments:
[1] = molecular target: APC mutant QGNSEDY (ALL) (human) (UniProt P04070); assay: cell-based or functional assay
[2] = molecular target: wild-type human activated protein C (recombinant, thrombin-activated) (human) (UniProt P04070); assay: cell-based or functional assay

Substance: human protein S (from UniProt P07225 42-676)
- APTT clotting time in protein S deficient human plasma with APC, in absence of protein S [1]: 160 s
- APTT clotting time in protein S deficient human plasma with APC, protein S added [1]: 350 s
- APTT clotting time in protein S deficient human plasma with APC, highest protein S concentration [2]: 150 s
- APTT clotting time in protein S deficient human plasma with APC, in absence of protein S [2]: 100 s
